Where two headings read alike, the source gives them in different places.
B1: NAP1L2 (protein, UniProt Q9ULW6 1-460, looked up)
Nucleosome assembly protein …: MAESENRKELSESSQEEAGNQIMVEGLGEHLERGEDAAAGLGDDGKCGEEAAAGLGEEGENGEDTAAGSGEDGKKGGDTDEDSEADRPKGLIGYVLDTDFVESLPVKVKYRVLALKKLQTRAANLESKFLREFHDIERKFAEMYQPLLEKRRQIINAIYEPTEEECEYKSDSEDCDDEEMCHEEMYGNEEGMVHEYVDEDDGYEDYYYDYAVEEEEEEEEEDDIEATGEENKEEEDPKGIPDFWLTVLKNVDTLTPLIKKYDEPILKLLTDIKVKLSDPGEPLSFTLEFHFKPNEYFKNELLTKTYVLKSKLAYYDPHPYRGTAIEYSTGCEIDWNEGKNVTLKTIKKKQKHRIWGTIRTVTEDFPKDSFFNFFSPHGITSNGRDGNDDFLLGHNLRTYIIPRSVLFFSGDALESQQEGVVREVNDAIYDKIIYDNWMAAIEEVKACCKNLEALVEDIDR
B2: C1orf94 (protein, UniProt Q6P1W5 1-598, looked up)
Uncharacterized protein …: MRGGGGCVLALGGQRGFQKERRRMASGNGLPSSSALVAKGPCALGPFPRYIWIHQDTPQDSLDKTCHEIWKRVQGLPEASQPWTSMEQLSVPVVGTLRGNELSFQEEALELSSGKDEISLLVEQEFLSLTKEHSILVEESSGELEVPGSSPEGTRELAPCILAPPLVAGSNERPRASIIVGDKLLKQKVAMPVISSRQDCDSATSTVTDILCAAEVKSSKGTEDRGRILGDSNLQVSKLLSQFPLKSTETSKVPDNKNVLDKTRVTKDFLQDNLFSGPGPKEPTGLSPFLLLPPRPPPARPDKLPELPAQKRQLPVFAKICSKPKADPAVERHHLMEWSPGTKEPKKGQGSLFLSQWPQSQKDACGEEGCCDAVGTASLTLPPKKPTCPAEKNLLYEFLGATKNPSGQPRLRNKVEVDGPELKFNAPVTVADKNNPKYTGNVFTPHFPTAMTSATLNQPLWLNLNYPPPPVFTNHSTFLQYQGLYPQQAARMPYQQALHPQLGCYSQQVMPYNPQQMGQQIFRSSYTPLLSYIPFVQPNYPYPQRTPPKMSANPRDPPLMAGDGPQYLFPQGYGFGSTSGGPLMHSPYFSSSGNGINF
B3: VPS52 (protein, UniProt Q8N1B4 2-723, looked up)
Vacuolar protein …: AAAATMAAAARELVLRAGTSDMEEEEGPLAGGPGLQEPLQLGELDITSDEFILDEVDVHIQANLEDELVKEALKTGVDLRHYSKQVELELQQIEQKSIRDYIQESENIASLHNQITACDAVLERMEQMLGAFQSDLSSISSEIRTLQEQSGAMNIRLRNRQAVRGKLGELVDGLVVPSALVTAILEAPVTEPRFLEQLQELDAKAAAVREQEARGTAACADVRGVLDRLRVKAVTKIREFILQKIYSFRKPMTNYQIPQTALLKYRFFYQFLLGNERATAKEIRDEYVETLSKIYLSYYRSYLGRLMKVQYEEVAEKDDLMGVEDTAKKGFFSKPSLRSRNTIFTLGTRGSVISPTELEAPILVPHTAQRGEQRYPFEALFRSQHYALLDNSCREYLFICEFFVVSGPAAHDLFHAVMGRTLSMTLKHLDSYLADCYDAIAVFLCIHIVLRFRNIAAKRDVPALDRYWEQVLALLWPRFELILEMNVQSVRSTDPQRLGGLDTRPHYITRRYAEFSSALVSINQTIPNERTMQLLGQLQVEVENFVLRVAAEFSSRKEQLVFLINNYDMMLGVLMERAADDSKEVESFQQLLNARTQEFIEELLSPPFGGLVAFVKEAEALIERGQAERLRGEEARVTQLIRGFGSSWKSSVESLSQDVMRSFTNFRNGTSIIQGALTQLIQLYHRFHRVLSQPQLRALPARAELINIHHLMVELKKHKPNF
B4: BCAN (protein, UniProt Q96GW7 23-911, looked up)
Brevican core protein: DVLEGDSSEDRAFRVRIAGDAPLQGVLGGALTIPCHVHYLRPPPSRRAVLGSPRVKWTFLSRGREAEVLVARGVRVKVNEAYRFRVALPAYPASLTDVSLALSELRPNDSGIYRCEVQHGIDDSSDAVEVKVKGVVFLYREGSARYAFSFSGAQEACARIGAHIATPEQLYAAYLGGYEQCDAGWLSDQTVRYPIQTPREACYGDMDGFPGVRNYGVVDPDDLYDVYCYAEDLNGELFLGDPPEKLTLEEARAYCQERGAEIATTGQLYAAWDGGLDHCSPGWLADGSVRYPIVTPSQRCGGGLPGVKTLFLFPNQTGFPNKHSRFNVYCFRDSAQPSAIPEASNPASNPASDGLEAIVTVTETLEELQLPQEATESESRGAIYSIPIMEDGGGGSSTPEDPAEAPRTLLEFETQSMVPPTGFSEEEGKALEEEEKYEDEEEKEEEEEEEEVEDEALWAWPSELSSPGPEASLPTEPAAQEESLSQAPARAVLQPGASPLPDGESEASRPPRVHGPPTETLPTPRERNLASPSPSTLVEAREVGEATGGPELSGVPRGESEETGSSEGAPSLLPATRAPEGTRELEAPSEDNSGRTAPAGTSVQAQPVLPTDSASRGGVAVVPASGDCVPSPCHNGGTCLEEEEGVRCLCLPGYGGDLCDVGLRFCNPGWDAFQGACYKHFSTRRSWEEAETQCRMYGAHLASISTPEEQDFINNRYREYQWIGLNDRTIEGDFLWSDGVPLLYENWNPGQPDSYFLSGENCVVMVWHDQGQWSDVPCNYHLSYTCKMGLVSCGPPPELPLAQVFGRPRLRYEVDTVLRYRCREGLAQRNLPLIRCQENGRWEAPQISCVPRRPARALHPEEDPEGRQGRLLGRWKALLIPPSSPMPGP
B5: C12orf41 (protein, UniProt Q9H9L4 1-492, looked up)
KAT8 regulatory NSL complex …: MNRIRIHVLPTNRGRITPVPRSQEPLSCAFTHRPCSHPRLEGQEFCIKHILEDKNAPFKQCSYISTKNGKRCPNAAPKPEKKDGVSFCAEHVRRNALALHAQMKKTNPGPVGETLLCQLSSYAKTELGSQTPESSRSEASRILDEDSWSDGEQEPITVDQTWRGDPDSEADSIDSDQEDPLKHAGVYTAEEVALIMREKLIRLQSLYIDQFKRLQHLLKEKKRRYLHNRKVEHEALGSSLLTGPEGLLAKERENLKRLKCLRRYRQRYGVEALLHRQLKERRMLATDGAAQQAHTTRSSQRCLAFVDDVRCSNQSLPMTRHCLTHICQDTNQVLFKCCQGSEEVPCNKPVPVSLSEDPCCPLHFQLPPQMYKPEQVLSVPDDLEAGPMDLYLSAAELQPTESLPLEFSDDLDVVGDGMQCPPSPLLFDPSLTLEDHLVKEIAEDPVDILGQMQMAGDGCRSQGSRNSEKASAPLSQSGLATANGKPEPTSIS
B6: CD68 (protein, UniProt P34810 22-354, looked up)
Macrosialin: NDCPHKKSATLLPSFTVTPTVTESTGTTSHRTTKSHKTTTHRTTTTGTTSHGPTTATHNPTTTSHGNVTVHPTSNSTATSQGPSTATHSPATTSHGNATVHPTSNSTATSPGFTSSAHPEPPPPSPSPSPTSKETIGDYTWTNGSQPCVHLQAQIQIRVMYTTQGGGEAWGISVLNPNKTKVQGSCEGAHPHLLLSFPYGHLSFGFMQDLQQKVVYLSYMAVEYNVSFPHAAQWTFSAQNASLRDLQAPLGQSFSCSNSSIILSPAVHLDLLSLRLQAAQLPHTGVFGQSFSCPSDRSILLPLIIGLILLGLLALVLIAFCIIRRRPSAYQAL
B7: CCDC21 (protein, UniProt Q6P2H3 1-762, looked up)
Centrosomal protein of 85 kDa: MAMQEKYPTEGISHVTSPSSDVIQKGSSLGTEWQTPVISEPFRSRFSRCSSVADSGDTAIGTSCSDIAEDFCSSSGSPPFQPIKSHVTIPTAHVMPSTLGTSPAKPNSTPVGPSSSKLPLSGLAESVGMTRNGDLGAMKHSPGLSRDLMYFSGATGENGIEQSWFPAVGHERQEEARKFDIPSMESTLNQSAMMETLYSDPHHRVRFHNPRTSTSKELYRVLPEAKKAPGSGAVFERNGPHSNSSGVLPLGLQPAPGLSKPLPSQVWQPSPDTWHPREQSCELSTCRQQLELIRLQMEQMQLQNGAICHHPAAFGPSLPILEPAQWISILNSNEHLLKEKELLIDKQRKHISQLEQKVRESELQVHSALLGRPAPFGDVCLLRLQELQRENTFLRAQFAQKTEALSREKIDLEKKLSASEVEVQLIRESLKVALQKHSEEVKKQEERVKGRDKHINNLKKKCQKESEQNREKQQRIETLERYLADLPTLEDHQKQSQQLKDSELKSTELQEKVTELESLLEETQAICREKEIQLESLRQREAEFSSAGHSLQDKQSVEETSGEGPEVEMESWQKRYDSLQKIVEKQQQKMDQLRSQVQSLEQEVAQEEGTSQALREEAQRRDSALQQLRTAVKELSVQNQDLIEKNLTLQEHLRQAQPGSPPSPDTAQLALELHQELASCLQDLQAVCSIVTQRAQGHDPNLSLLLGIHSAQHPETQLDLQKPDVIKRKLEEVQQLRRDIEDLRTTMSDRYAQDMGENCVTQ

Columns and labels:
[1] = target: T1, HCV ORFs (Gal4-DB fusions) (Hepatitis C virus genotype 1b, UniProt Q9WMX2); assay type: binding, HCV genotype 1b, isolate con1; details: human protein as prey
T1 construct: expressed in transfected cells; host or cells: Saccharomyces cerevisiae MAV203 (IMAP1) / AH109 (IMAP2)
Description: (§1) HCV ORFs were transferred from pDONR223 into bait vector (pPC97) to be expressed as Gal4-DB fusions in yeast. Two different screening methods were used (IMAP1 and IMAP2). Both for IMAP1 and IMAP2 strategies and because bait constructs sometimes self-transactivate reporter genes, SD-L-H culture medium were supplemented with 3-aminotriazole (3-AT). Appropriate concentrations of this drug were determined by growing bait strains on SD-L-H medium supplemented with increasing concentrations of 3-AT. […] For IMAP1, bait vectors were introduced in MAV203 yeast strain and both human spleen and foetal brain AD-cDNA libraries (Invitrogen) were screened by transformation as described (7). All primary positive clones (selected on SD-W-L-H+3-AT) were tested by further phenotypic assay using two additional reporter genes: LacZ (X-Gal colorimetric assay) and URA3 (growth assay on 5-FOA supplemented medium). […] AD-cDNA were PCR-amplified and inserts were sequenced to identify interactors. IMAP2 screens were performed by yeast mating, using AH109 and Y187 yeast strains (Clontech (8)). Bait vectors were transformed into AH109 (bait strain) and human spleen and foetal brain AD-cDNA libraries (Invitrogen) were transformed into Y187 (prey strain). Single bait strains were mated with prey strains then diploids were plated on SD-W-L-H+3-AT medium. Positive clones were maintained onto this selective medium for 15 days to eliminate any contaminant AD-cDNA plasmid (9). AD-cDNAs were PCR amplified and inserts were sequenced.
(§2) We have developed a bioinformatic pipeline that assigns each IST to its native human genome transcript. […] Gal4 motif was searched (last 87 bases of GAL4-AD), sequences downstream of this motif were translated into peptides and aligned using BLASTP against the REFSEQ (http://www.ncbi.nlm.nih.gov/RefSeq/) human protein sequence database (release 04/2007). Low-confidence alignments (E value>10^−10, identity <80%) and premature STOP codon containing sequences were eliminated. Only in-frame proteins and high quality sequences were further considered

[2] = target: T2, GST-tagged viral proteins (Hepatitis C virus genotype 1b, UniProt Q9WMX2); experiment: Validation by co-affinity purification (CoAP); assay type: binding, HCV genotype 1b, isolate con1; design: key: +: IMAP validation; −: not validated; NA: non assayable due to default of protein expression or to cellular protein directly interacting with GST
T2 construct: expressed in transfected cells; host or cells: HEK-293T
Description: C. Validation of Y2H interactions by co-affinity purification assay. Nine co-AP positive assays are shown, representing: NS5A-SORBS2 (1), NS3-CALCOCO2 (2), NS5A-BIN1 (3), NS5A-MOBK1B (4), NS5A-EFEMP1 (5), NS3-PSMB9 and NS5A-PSMB9 (6), NS5A-PPPIRI3L (7), NS3-RASAL2 (8). After pull-down with GST tagged viral baits (+) or with negative control GST alone (−), cellular preys are identified with anti-Flag antibody. Anti-GST antibody identifies either GST alone or GST-tagged viral baits. Expression of cellular preys in cell lysate is controlled by anti-Flag (bottom panel). […]
A random pool of 59 IMAP Y2H interactions was chosen for CoAP assays. Cellular ORFs (interacting domains found in Y2H screens) were cloned by recombinational cloning from a pool of human cDNA library or the MGC cDNA plasmids using KOD polymerase (Toyobo) into pDONR207 (Invitrogen). After validation by sequencing, these ORFs were transferred to pCi-neo-3xFLAG gateway-converted, and HCV ORFs were transferred into pDEST27 (GST fusion in N-term). HEK-293T cells were then co-transfected (JetPei, Polyplus) by each pair of plasmid encoding interacting proteins. Controls are GST alone against 3xFLAG-tagged preys. Two days after transfection, cells were harvested and lysed (0.5% NP-40, 20 mM Tris-HCl (pH 8.0), 180 mM NaCl, 1 mM EDTA, and complete protease inhibitor cocktail). Cell lysates were cleared by centrifugation for 20 min at 13,000 rpm at 4° C. and soluble protein complexes were purified using Glutathione Sepharose 4B beads (GE Healthcare). Beads were then washed extensively four times with lysis buffer and proteins were separated on SDS-PAGE and transferred to nitrocellulose membrane. GST-tagged viral proteins and 3xFLAG-tagged cellular proteins were detected using standard immunoblotting techniques using anti-GST (Covance) and anti-FLAG M2 (Sigma) monoclonal antibodies (21).

[3] = tested on: HCV ORFs (Gal4-DB fusions); assay type: binding, HCV genotype 1b, isolate con1; details: human protein listed by gene symbol; the value names the HCV protein it interacts with
Description: as §1, §2

HCV proteins = target: T3, HCV proteins (Hepatitis C virus genotype 1b, UniProt Q9WMX2); experiment: Validation by Y2H pairwise matrices; assay type: binding;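 also: yeast two-hybrid pairwise tests of interactions first found in Y2H screens of HCV bait proteins against human cDNA libraries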
T3 construct: expressed in transfected cells
Description: A comprehensive interactome map between HCV and cellular proteins was generated by Y2H screens. Twenty seven constructs encoding full-length HCV mature proteins or discrete domains were cloned using a recombination-based cloning system (10) (FIG. 6). Four independent screens were performed with each HCV bait protein, probing two distinct human cDNA libraries (Supplementary Methods). […] Two validation methods were used to assess the confidence of the IMAP Y2H dataset.

[4] = interaction with HCV protein NS5A
[5] = validation of interaction with HCV protein NS3
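For IMAP Y2H IMAP1 (number of IST) in this document: yeast two-hybrid screens using HCV genotype 1b proteins fused to Gal4-DB as baits against prey cDNA libraries from human spleen and foetal brain, IMAP1 via transformation and IMAP2 via mating.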
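For IMAP Y2H IMAP2 (number of IST) in this document: yeast two-hybrid screens using HCV genotype 1b proteins fused to Gal4-DB as baits against prey cDNA libraries from human spleen and foetal brain, IMAP1 via transformation and IMAP2 via mating.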
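For Interaction with viral protein in this document: yeast two-hybrid screens using HCV genotype 1b proteins fused to Gal4-DB as baits against prey cDNA libraries from human spleen and foetal brain, IMAP1 via transformation and IMAP2 via mating.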

| Molecule | IMAP Y2H IMAP1 (number of IST) ([1]; HCV protein NS3 as bait) | Interaction with viral protein [3] | Y2H matrices (HCV proteins; [5]) | other results |
| --- | --- | --- | --- | --- |
| B1 |  |  |  | IMAP Y2H IMAP2 (number of IST) ([1]; HCV protein NS5A as bait): 4; CoAP [2, 4]: + |
| B2 | 1 | NS3 | + |  |
| B3 |  |  |  | IMAP Y2H IMAP2 (number of IST) ([1]; HCV protein NS5A as bait): 2; CoAP [2, 4]: + |
| B4 | 2 | NS3 | + |  |
| B5 | 1 | NS3 | + |  |
| B6 |  | CORE |  | IMAP Y2H IMAP1 (number of IST) ([1]; HCV protein CORE as bait): 1; Y2H matrices (HCV proteins; validation of interaction with HCV protein CORE): + |
| B7 |  | NS3 |  | IMAP Y2H IMAP2 (number of IST) ([1]; HCV protein NS3 as bait): 2; CoAP [2, 5]: + |

— US20110091994A1, “Methods for Screening Compounds for Treating and/or Preventing an Hepatitis C Virus Infection” (priority 2008, published 2011)
